Results from patent US20070065878A1.
Several values for one entry are separate records, joined by “and”; a condition that tells them apart may be missing. Equal values may be shown once.

Legend:
[1] = test system: T1, CyPet-YPet substrate with recognition sequence SGDRMW (EP4.3)
T1 sequence: SGDRMWHHHHHH

[2] = test system: T2, Canonical (enteropeptidase substrate)
T2 sequence: DDDDKGGQS

[3] = test system: T3, EP 4.9
T3 sequence: SVLDRWMGG

[4] = test system: T4, EP 2.5
T4 sequence: MSGERMGGS

[5] = test system: T5, EP 4.3
T5 sequence: SSGDRMWGG

[6] = test system: T6, EP 4.4
T6 sequence: SEYDRQLGS

[7] = test system: T7, EP 4.10
T7 sequence: GSSERAAAG

[8] = test system: T8, EP 4.8
T8 sequence: VRDYRMGGQ

[9] = test system: T9, EP 3.6
T9 sequence: GSSDRARVW

[10] = test system: T10, negative control displaying the sequence GGQSGQ
T10 sequence: GGQSGQ

[11] = test system: T11, EP 2.2
T11 sequence: AAVERWGGS

[12] = test system: T12, EP 4.2
T12 sequence: MHGERMGGS

[13] = test system: T13, Dabcyl-SGDRMW(E-Edans)-amide
T13 sequence: SGDRMW

[14] = test system: T14, EP 4.7
T14 sequence: GSDDRRAGG

[15] = test system: T15, EP 4.6
T15 sequence: SSGERMMGG

[16] = test system: T16, EP 4.1
T16 sequence: SVDYRFLGS

[17] = test system: T17, PVNVV (MMP substrate, 5X library)
T17 sequence: PVNVV

[18] = test system: T18, PMAVT (MMP substrate, 5X library)
T18 sequence: PMAVT

[19] = test system: T19, VPMVV (MMP substrate, 5X library)
T19 sequence: VPMVV

[20] = test system: T20, VPVNM (MMP substrate, 5X library)
T20 sequence: VPVNM

[21] = test system: T21, VPLNM (MMP substrate, 5X library)
T21 sequence: VPLNM

[22] = test system: T22, VPVVM (MMP substrate, 5X library)
T22 sequence: VPVVM

[23] = test system: T23, PVAMR (MMP substrate, 5X library)
T23 sequence: PVAMR

[24] = test system: T24, MPVVL (MMP substrate, 5X library)
T24 sequence: MPVVL

[25] = test system: T25, MPLVM (MMP substrate, 5X library)
T25 sequence: MPLVM

[26] = test system: T26, PVPMV (MMP substrate, 5X library)
T26 sequence: PVPMV

[27] = test system: T27, PMAVI (MMP substrate, 5X library)
T27 sequence: PMAVI

[28] = test system: T28, TPLAL (MMP substrate, 5X library)
T28 sequence: TPLAL

[29] = biological target: T29, Canonical (caspase-3 substrate)
T29 chain: QDEVDGGQS
Throughout, for % Conversion: test concentration or dose not given here.

Molecule: catalytic subunit light chain of enteropeptidase
- cleavage rate of the CyPet-YPet fusion by fluorimetry, relative to DDDDK [1]: cleaved at a rate 17-fold faster than DDDDK
- Conversion (fraction converted) [2]: 0.15
- decrease in mean fluorescence intensity (SA-PE label) after incubation with enteropeptidase [2]: 20 fold
- Conversion (fraction converted) [3]: 0.72
- Conversion (fraction converted) [4]: 0.84
- Conversion (fraction converted) [5]: 0.97
- Conversion (fraction converted) [6]: 0.71
- Conversion (fraction converted) [7]: 0.78
- Conversion (fraction converted) [8]: 0.87
- Conversion (fraction converted) [9]: 0.86
- change in fluorescence (SA-PE label) after incubation with enteropeptidase [10]: exhibited minimal change in fluorescence
- Conversion (fraction converted) [11]: 0.69
- Conversion (fraction converted) [12]: 0.84
- kcat/KM of the synthetic fluorogenic peptide, relative to DDDDK [13]: > 5 fold
- Conversion (fraction converted) [14]: 0.91
- Conversion (fraction converted) [15]: 0.93
- Conversion (fraction converted) [16]: 0.84

Molecule: matrix metalloprotease-1
- % Conversion (fraction (head says % Conversion)) [17]: 0.789
- % Conversion (fraction (head says % Conversion)) [18]: 0.504
- % Conversion (fraction (head says % Conversion)) [19]: 0.814 and 0.443
- % Conversion (fraction (head says % Conversion)) [20]: 0.76
- % Conversion (fraction (head says % Conversion)) [21]: 0.844 and 0.61
- % Conversion (fraction (head says % Conversion)) [22]: 0.366
- % Conversion (fraction (head says % Conversion)) [23]: 0.729
- % Conversion (fraction (head says % Conversion)) [24]: 0.428
- % Conversion (fraction (head says % Conversion)) [25]: 0.659
- % Conversion (fraction (head says % Conversion)) [26]: 0.496
- % Conversion (fraction (head says % Conversion)) [27]: 0.699
- % Conversion (fraction (head says % Conversion)) [28]: 0.417

B1: caspase-3 (protein)
chain: MENTENSVDSKSIKNLEPKIIHGSESMDSGISLDNSYKMDYPEMGLCIIINNKNFHKSTGMTSRSGTDVDAANLRETFRNLKYEVRNKNDLTREEIVELMRDVSKEDHSKRSSFVCVLLSHGEEGIIFGTNGPVDLKKITNFFRGDRCRSLTGKPKLFIIQACRGTELDCGIETDSGVDDDMACHKIPVEADFLYAYSTAPGYYSWRNSKDGSWFIQSLCAMLKQYADKLEFMHILTRVNRKVATEFESFSFDATFHAKKQIPCIVSMLTKELYFYH
- Conversion (fraction converted) [29]: 0.95
